System: gelatin (0.1%, incorporated in a 10% Tris-glycine polyacrylamide gel as substrate)

human matrix metalloproteinase-8 (recombinant, secreted by A549 cells infected with AdMMP8)
gelatin hydrolysis in zymogram gel: The gelatin hydrolysis visible in the zymogram gel
